Series [1] concerns LU124p2 parental cell line. As to the kind of experiment: Oxaliplatin sensitivity, Cell Titer Glo dose response. The class given is cell-based, human. The conditions noted are these: seven days in culture. An excerpt:
(§1) Cisplatin and its derivatives, including oxaliplatin are the chemotherapeutic standard of care for SCLC. An oxaliplatin-resistant SCLC PDX line was developed due to concerns that cisplatin may not be stable in tissue culture medium (Schuldes et al., 1997, PMID: 9128988). The oxaliplatin-resistant SCLC line was generated by isolating human cells from LU124p2, a SCLC PDX line that had been passaged subcutaneously twice through NOD.SCID mice. LU124p2 tumors were resected from mice after reaching 800-2,000 mm^3, dissociated into single cell suspensions using art-recognized enzymatic digestion techniques (see, for example, US2007/0292414), and depleted of murine cells. The cells were then washed and cultured in 5% oxygen and serum-free medium and immediately treated with 1 μM of oxaliplatin. After seven days of exposure to oxaliplatin, the cells were washed and allowed to recover for two weeks in standard serum-free media with fresh renewal of medium twice a week. After the recovery period, the cells were washed and re-plated into a new flask with 1 μM of oxaliplatin for seven more days, followed by a final wash and a two week recovery period. The resulting cell line was termed LU124OXAHIp2. Single cell suspensions were generated using Versene (Invitrogen). Some of the cells were injected into mice to propagate the LU124OXAHIp2 cell line, while other cells were cultured in vitro to test sensitivity to oxaliplatin.
(§2) Oxaliplatin sensitivity of LU124OXAHIp2 was tested as follows: LU124OXAHIp2 cells were plated onto 96-well plates and treated with a titration of oxaliplatin in serum-free medium as is standard in the art. After seven days in culture, cells were harvested using Cell Titer Glo® (Promega) as per the manufacturer's instructions and dose response curves were obtained. […] To determine whether the resistance was stable, LU124OXAHIp2 cells were passaged again through immunocompromised mice to yield the cell line called LU124OXAHIp3.

The test system of the next series is LU124OXAHIp2 cells. The series is described as above. The class given is cell-based, human. The conditions noted are these: seven days in culture, oxaliplatin-resistant line.
Text: as §1, §2

The subject of the next series is LU124OXAHIp3 cells. The series is described as above. The class given is cell-based, human. As to conditions: after further passage through mice without oxaliplatin.
Text: as §1, §2

The test system of a further series is cynomolgus SEZ6. Kind of series: Flow cytometry cross reactivity, yeast displaying extracellular domain of cynomolgus SEZ6. The class given is binding. As to conditions: 5 μg/mL antibody. The procedure: In this regard flow cytometry was performed using a FACSCanto II as per the manufacturer's instructions in order to confirm that selected SC17 antibody modulators can immunospecifically associate with human SEZ6 and to determine whether the same modulators cross-react with cynomolgus, rat and/or murine SEZ6 in addition to SEZ6L and SEZ6L2. More particularly modulators were tested for cross reactivity to murine SEZ6 and rat SEZ6 by flow cytometry against Neuro2a (ATCC Cat # CCL131), and RIN-m5F (ATCC cat # CRL-11605) cell lines which express mouse SEZ6 and rat SEZ6, respectively. For examining cross reactivity to cynomolgus SEZ6, yeast displaying the extracellular domain of cynomolgus SEZ6 (Boder et al, 1997) were used for flow cytometry analysis.
Briefly 1×10^5 cells per well of Neuro2a, RIN-5mF, or yeast displaying cynomolgus SEZ6 cells were incubated for 30 minutes with 50 μL PBS (2% FCS) buffer with 5 μg/mL antibody. Cells were washed twice with the same buffer and then incubated with 50 μL per sample DyLight 649 labeled goat-anti-mouse IgG, Fc fragment specific secondary diluted 1:200 in PBS buffer. After incubating for 15 minutes cells were washed twice with the PBS buffer and re-suspended in the same with DAPI for flow cytometry analysis of Neuro2a and Rin-m5F or buffer without DAPI for flow cytometric analysis of yeast cells with cSEZ6.

For another series, the system named is LU50 LCNEC tumor. Kind of series: NTX tumor growth in immunodeficient mice, murine ADCs. The conditions noted are these: three injections of 1 mg/kg intraperitoneally over seven days, NOD/SCID mice. The class given is in vivo, human. The procedure: Patient-derived NTX tumors were grown subcutaneously in the flanks of female NOD/SCID recipient mice using art-recognized techniques. Tumor volumes and mouse weights were monitored twice per week. When tumor volumes reached 150-250 mm^3, mice were randomly assigned to treatment groups and injected intraperitoneally with SC17-ADC1 or a control MsIgG1-ADC1. Mice were given three injections of 1 mg/kg (indicated by the vertical lines in FIG. 17B) over a period of seven days. Following treatment, tumor volumes and mouse weights were monitored until tumors exceeded 800 mm^3 or mice became sick.

In another series the test system is rat SEZ6. Kind of series: Flow cytometry cross reactivity, RIN-m5F cells. The class given is binding. As to conditions: 5 μg/mL antibody. The method in brief:
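Neuro2a (mouse SEZ6), RIN-m5F (rat SEZ6) or yeast displaying cynomolgus SEZ6 extracellular domain, 1×10^5 cells, incubated 30 min with 5 μg/mL antibody in PBS/2% FCS. Detection by DyLight 649 anti-mouse IgG Fc secondary (1:200, 15 min), then flow cytometry, with DAPI for mammalian cells only.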
On the technique in general: Flow cytometry measures light scatter and fluorescence of single cells or particles in a stream.

In the next series the target is T1, SEZ6 ECD (Homo sapiens, UniProt Q53EL9).
T1 construct: SEZ6 extracellular domain (amino acids 1-904); expressed in transfected cells; host or cells: yeast (surface display, Cochran et al. protocol)
T1 sequence (Q53EL9 20-923): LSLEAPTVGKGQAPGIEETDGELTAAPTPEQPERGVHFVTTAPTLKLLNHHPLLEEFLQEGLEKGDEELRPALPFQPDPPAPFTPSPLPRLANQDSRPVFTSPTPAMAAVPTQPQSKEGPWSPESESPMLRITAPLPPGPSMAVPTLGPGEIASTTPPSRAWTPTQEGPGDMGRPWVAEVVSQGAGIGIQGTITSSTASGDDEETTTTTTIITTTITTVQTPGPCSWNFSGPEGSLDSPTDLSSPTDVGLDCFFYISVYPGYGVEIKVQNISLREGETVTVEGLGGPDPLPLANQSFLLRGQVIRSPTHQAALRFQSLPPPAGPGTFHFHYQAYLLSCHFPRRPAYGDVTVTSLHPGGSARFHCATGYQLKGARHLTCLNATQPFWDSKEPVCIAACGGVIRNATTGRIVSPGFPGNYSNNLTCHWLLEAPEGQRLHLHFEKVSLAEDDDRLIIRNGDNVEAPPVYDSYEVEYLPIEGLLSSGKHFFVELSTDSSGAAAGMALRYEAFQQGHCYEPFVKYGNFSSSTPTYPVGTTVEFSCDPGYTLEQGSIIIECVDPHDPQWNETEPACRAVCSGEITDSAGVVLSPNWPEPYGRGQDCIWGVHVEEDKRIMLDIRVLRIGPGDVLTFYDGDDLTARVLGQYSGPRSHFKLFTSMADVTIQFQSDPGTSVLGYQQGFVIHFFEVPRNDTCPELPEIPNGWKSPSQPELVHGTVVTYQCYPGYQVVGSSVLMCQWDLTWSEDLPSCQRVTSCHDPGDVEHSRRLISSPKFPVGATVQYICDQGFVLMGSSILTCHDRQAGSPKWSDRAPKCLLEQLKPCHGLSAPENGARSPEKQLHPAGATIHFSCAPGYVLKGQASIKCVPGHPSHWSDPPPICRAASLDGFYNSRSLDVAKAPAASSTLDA
Kind of series: Fine epitope mapping (phage display peptide library or yeast-displayed SEZ6 ECD mutants). The class given is binding. The conditions noted are these: epitope conformational (discontinuous) or linear.

The test system of series [2] is HEK293 cells overexpressing SEZ6. Kind of series: In vitro cytotoxicity of ADC. The class given is cell-based, human.
Protocol: The final ADC was analyzed for protein concentration (by measuring UV), aggregation (SEC), drug to antibody ratio (DAR) by reverse phase (RP) HPLC, presence of unconjugated antibody by hydrophobic interaction chromatography (HIC) HPLC, non-proteinaceous materials by RP HPLC and in vitro cytotoxicity using a SEZ6 expressing cell line.
Another series deals with LU117 tumor. Kind of series: SCLC NTX tumor volume in immunodeficient mice, humanized ADCs. As to conditions: three injections of 1 mg/kg over seven days. The class given is in vivo, human. The procedure: (§3) The ability of humanized anti-SEZ6 ADCs to reduce SCLC tumor volume was also tested. Anti-SEZ6 ADCs (hSC17.17, hSC17.24, hSC17.34 and hSC17.46), and the human IgG1 isotype control ADC (huIgG1) were administered to immunodeficient mice bearing various patient derived NTX tumors. Mice were given three injections of 1 mg/kg (indicated by the vertical lines in FIGS. 18C and 18D) over a period of seven days. Following treatment, tumor volumes and mouse weights were monitored until tumors exceeded 800 mm^3 or mice became sick. Complete and durable elimination of tumor mass was achieved by the administration of humanized anti-SEZ6 ADCs in four SCLC tumors.

The subject of a further series is LU80 tumor. Described as above. The class given is in vivo, human. As to conditions: three injections of 1 mg/kg over seven days. The procedure: as §3
The next series relates to LU64 tumor. The description is as above. As to conditions: three injections of 1 mg/kg over seven days. The class given is in vivo, human. The procedure: as §3

Sequence of rat SEZ6 (as listed by the source): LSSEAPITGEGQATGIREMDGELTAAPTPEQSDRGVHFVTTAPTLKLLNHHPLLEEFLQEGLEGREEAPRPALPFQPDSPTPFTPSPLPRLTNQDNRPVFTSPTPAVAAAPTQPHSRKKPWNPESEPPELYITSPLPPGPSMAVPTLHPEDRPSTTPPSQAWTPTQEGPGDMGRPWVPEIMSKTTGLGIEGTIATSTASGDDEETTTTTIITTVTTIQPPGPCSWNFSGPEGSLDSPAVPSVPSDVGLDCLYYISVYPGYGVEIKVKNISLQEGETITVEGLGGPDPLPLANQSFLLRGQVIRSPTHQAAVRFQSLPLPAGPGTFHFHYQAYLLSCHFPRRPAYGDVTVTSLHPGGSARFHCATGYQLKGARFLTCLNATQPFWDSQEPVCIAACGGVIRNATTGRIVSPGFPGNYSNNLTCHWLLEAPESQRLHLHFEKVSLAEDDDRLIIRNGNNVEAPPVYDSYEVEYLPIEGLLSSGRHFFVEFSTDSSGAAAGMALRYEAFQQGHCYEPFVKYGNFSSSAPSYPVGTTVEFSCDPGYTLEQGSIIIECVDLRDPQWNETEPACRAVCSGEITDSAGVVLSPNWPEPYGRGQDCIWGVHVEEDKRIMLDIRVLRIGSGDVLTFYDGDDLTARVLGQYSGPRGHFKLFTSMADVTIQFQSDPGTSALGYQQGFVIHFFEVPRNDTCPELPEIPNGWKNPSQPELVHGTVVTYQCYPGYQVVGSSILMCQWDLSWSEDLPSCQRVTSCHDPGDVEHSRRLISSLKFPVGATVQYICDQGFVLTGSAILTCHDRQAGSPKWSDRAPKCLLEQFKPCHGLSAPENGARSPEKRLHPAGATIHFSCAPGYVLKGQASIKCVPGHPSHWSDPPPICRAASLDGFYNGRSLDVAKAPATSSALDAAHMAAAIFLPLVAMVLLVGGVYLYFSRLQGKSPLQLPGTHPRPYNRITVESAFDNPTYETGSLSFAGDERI

By IC50 is commonly meant the point on the concentration scale where inhibition reaches its midpoint. As for `O=C1[O][Pt]2([NH][C@@H]3CCCC[C@H]3[NH]2)[O]C1=O` [oxaliplatin], the results for the IC50 (in series [1]; in the series on LU124OXAHIp2 cells) were 36 nM and 2000 to 2500 nM, respectively. Further, in the series with LU124OXAHIp3 cells, the “resistance to oxaliplatin, LU124OXAHIp3” value was “Resistance was maintained”.

B1: SC17.46 (antibody, V domains shown)
VH: QVQLQQPGAELVKPGASMKLSCKASGYTFTSYWINWVKQRPGQGLEWIGNIFPDTTTTNYNEKFKSKATLTVDTSSSTAYMQLSSLTSDDSAVYYCAREYYDGTYDAMDYWGQGTSVTV
VL: SFVMTQTPKFLLVSAGDRVTITCKASQSVNNDVAWYQQKPGQSPKLLIYYASNRYTGVPDRFTGSGYGTDFTFTISTVQAEDLAVYFCQQDYSSPRTFGGGTKLEIK
modifications: Murine SC17.46 VH; Murine SC17.46 VL
On to B1, for which the “cross reactivity to cynomolgus SEZ6” value in the series with cynomolgus SEZ6 is listed as “lack of cross reactivity”. Besides, in the series on LU50 LCNEC tumor, the “duration of tumor growth suppression, LU50” value came to 35 days. Besides, in the series with rat SEZ6, the “cross reactivity to rat SEZ6” value is listed as “lack of cross reactivity”. Moreover, the Discontinuous result with SEZ6 ECD is listed as “Yes”.

B2: hSC17.17-ADC1 (conjugate)
VL: EIVLTQSPATLSLSPGERATLSCSASSSVSYMHWYQQKPGQAPRLLIYDTSKLPSGIPARFSGSGSGTDFTLTISSLEPEDFAVYYCQQWSSTPPTFGQGTKLEIK
VH: QVQLVQSGAEVKKPGASVKVSCKASGYTFTDYNMHWVRQAPGQGLEWMGEINPNIGGTGYNQKFKGRVTMTRDTSISTAYMELSRLRSDDTAVYYCARTYSYYSYEFAYWGQGTLVTVSS
In turn, B2 gave an IC50 in series [2] of 11 nM. Further, the “tumor volume, LU117” value in the series with LU117 tumor was “reduction”. For the same molecule, the “tumor volume, LU80” value in the series with LU80 tumor is “reduction”. Further, in the series on LU64 tumor, the “tumor volume, LU64” value is reported as “elimination”.

The record behind these values is patent US9993566B2, “SEZ6 modulators and methods of use” (AbbVie Stemcentrx LLC, priority 2013, dated 2018).
